Test results as given in the supplement of paper PMC9170038.

System: MS2 coat protein
Assay: apparent KD of MS2 coat protein; designed switch direction (-1 OFF switch, 1 ON switch): 1; higher = weaker reporter binding
How it was run: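 Designed RNA switches with common flanks were made on Illumina chips by stalled E. coli RNA polymerase. Titration with SNAP-549-labelled MS2 coat protein doubled from 0.7 or 1.5 nM up to 3 µM. Apparent KD is each design's median over clusters after curve-fitting normalised fluorescence.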

[1] = input ligand: microRNA oligo, concentration not stated
[2] = Eterna round: R95, input ligand: FMN 200 uM
[3] = Eterna round: R95, input ligand: microRNA oligo, concentration not stated
[4] = Eterna round: R95, input ligand: none

Sequence	apparent KD of MS2 coat protein (input ligand: FMN 200 uM)	apparent KD of MS2 coat protein [1]	apparent KD of MS2 coat protein (input ligand: none)	apparent KD of MS2 coat protein [2]	apparent KD of MS2 coat protein [3]	apparent KD of MS2 coat protein [4]
UACUUAGUGGUAGGAUAUGUAGGAUAUGGCGAGAGCUAAGCUUGGAAGUCACUUCAGCCAGAAGGACAGAAGGACCACUCUCUC [pwkr ssNG2 2FMN + F9.12] (Eterna round: R96, puzzle: Same State NG 2)	98 nM	17.4 nM	97.1 nM			
UUGCAGUGCGGGUAGGAUAUGUAGGGUGGUACAUGAGGAUCACCCAUGUAUCCACCCUUCGACCGGCAGAAGGGCCUGUCACCGC [Lexeis] (Eterna round: R96, puzzle: Same State 2)	23.1 nM	11.2 nM	17.4 nM			
UGCCUGAGUCGAGGAUAUUAUGGAUCAAUUAAUACAUGAGGAUCACCCAUGUAAUUAAUUUAACAUGAGAAGGCGACUCAGGCU [SSNG2/10-A3] (Eterna round: R96, puzzle: Same State NG 2)		7.93 nM				
GCGGAACGGGCCGACAUGAGGAUCACCCAUGUGGCCUCAUGUAAGGAUAUCGGGAAGAAGAAAACCGAGAAGGUACGGUGACGC [AK SSNG3-V2-31] (Eterna round: R96, puzzle: Same State NG 3)	47.2 nM	15.6 nM	107 nM			
AACAAUCUAUCUGAGGAUAUCAUGAAAUAAACAUGAGGAUCACCCAUGUGCAGGAAAACUGCAUAUGAGAAGGCAGAUUGAUUGA [salish99_ss2_r3_054] (puzzle: Same State 2)				56 nM	2560 nM	1280 nM
AUAUAACAUGAGGAUCACCCAUGUCUCUAAAGUCGAGGAUAUGGGCAGGUUAUAUCCGAACCAGAAGGCGGGUUAU [SS1 Teenbexe 8] (Eterna round: R96, puzzle: Same State 1)	1020 nM	287 nM	554 nM			
AUGAUUAAUGCAGGAUAUGAUUAACAUGAGGAUCACCCAUGUGGUGUUGUGAGUAAGGAGAGUGAUCAGAAGGGCAUUUUUUUU [JMF's solution 34] (Eterna round: R96, puzzle: Same State NG 2)	731 nM	430 nM	701 nM			
UUAUUAAUUACAUGAGGAUCACCCAUGUUAAAUAGUCAGAGACAGGAUAUAGAAGUCUCGUUUUACUAGAAGGGUCAUUAUAUG [JR_SSNG3_Sub013] (Eterna round: R96, puzzle: Same State NG 3)	40.7 nM	27.2 nM	35.8 nM			
AGAUGUUAAUCAGGAUAUGGGCCCGUGAGGAUCACCCACGGAAAGUAGGUCCAACAGGGCCCAGUCUAGAAGGGAUGGCUAACA [malcolm 80 ssNG2 F5+F7.2] (Eterna round: R96, puzzle: Same State NG 2)	112 nM	19.8 nM	84 nM			
UUGAUGAACUGAGGAUAUCGAGUCGUCUGUUUUUACAUGAGGAUCACCCAUGUGGGUUGUGGUAUCGAGAAGGCAGAUUACUUA [JR_SSNG2_Sub031] (Eterna round: R96, puzzle: Same State NG 2)	1670 nM	974 nM	2150 nM			
ACCAAUCCAAUAAAACAAGCGUGCUCGUCACAUGAGGAUCACCCAUGUUCAAGCGCUGUUCCUAAUUCCUCAGCGCC [Ortiat] (puzzle: Sensor for hsa-mir-208a)				72.3 nM	22.3 nM	67.7 nM
GGGAGAGGUACAGGAUAUGGUGAGGAUCACCCACUAGAAGGGUGCACAUGUGAAUCGGACAUGAGGAUCACCCAUGUUGGGCGU (Eterna round: R96, puzzle: Same State NG 1)	213 nM	265 nM	424 nM			
GGUAAGAAUUAAGGAUAUUGAAUACAUAUGUUUAACAUGAGGAUCACCCAUGUGGGUUGCGGUGUCGAGAAGGUAAAUUACUAG [Mat - same State NG 2 - JL mod - D99] (Eterna round: R96, puzzle: Same State NG 2)	281 nM	179 nM	229 nM			
GGUGCAAUUAACGCCUACAUGAGGAUCACCCAUGUAUGUAGGCAGGAUAUCGUUUGCAAAGCAAACGAGAAGGGCUGUAGUACC [Mat - Same State NG 3 - JL Mod - D40] (Eterna round: R96, puzzle: Same State NG 3)	51.1 nM	109 nM	131 nM			
AUUAUACAUGAGGAUCACCCAUGUAAUUAAUUAAUUAAGAUCUAGGAUAUCAGCUCGAAUAGAGCUGAGAAGGAGAUCACAUGU [SSNG3/20-C1] (Eterna round: R96, puzzle: Same State NG 3)		24.2 nM				
GCUCGACGUAUGGCCUACAUGAGGAUCACCCAUGUGACUGGGCAGGAUAUCUAGAUGCAGAAUGUAGAGAAGGGCCCGUCGAGC [SameState NG3 #48] (Eterna round: R96, puzzle: Same State NG 3)	244 nM	74 nM	194 nM			

Sequence	apparent KD of MS2 coat protein (input ligand: FMN 200 uM)	apparent KD of MS2 coat protein [1]	apparent KD of MS2 coat protein (input ligand: none)	apparent KD of MS2 coat protein [2]	apparent KD of MS2 coat protein [3]	apparent KD of MS2 coat protein [4]
AGAUCAUGACGAGGAUAUGGUACAUGAGGAUCACCCAUGUAUGUAUCAUAACGCGAAUGACGAAACCAGAAGGCGUCGUGAUCA [Mat - Same State NG 2 - JL mod - D43] (Eterna round: R96, puzzle: Same State NG 2)	8.74 nM	11.9 nM	15.8 nM			
CCGUAGAUGGAAGGAUAUGGAGCCUUAUUGGCUCCAGAAGGUUCAAUAACAUGAGGAUCACCCAUGUCGGCGGUCAAUAGACCG [Eli NG1ss - 80] (Eterna round: R96, puzzle: Same State NG 1)	20.5 nM	27.7 nM	44.9 nM			
UAAGGACAUGAGGAUCACCCAUGUGCUUCAUAUGGAGAAACUCAGGAUAUGCUGAGGAUCACCCAGCAGAAGGGAGAUCCGAGG (Eterna round: R96, puzzle: Same State NG 3)	206 nM	279 nM	281 nM			
AGUCCAGCCUGAGCUGGACAAAAGCAUGUACAUGAGGAUCACCCAUGUCAUGUACAAGCUUUUUGCUCGAAAUAAUA [Mat - hsa-mir-208a - Mod of JL - D32] (puzzle: Sensor for hsa-mir-208a)				653 nM	14.6 nM	938 nM
UUUGCAUGACGAGGAUAUCAUUUAUUUCAUGUUUGAGAAGGCGUUUUUUUUAUUACCUUACAUGAGGAUCACCCAUGUGUCUGU [JR_SSNG1_Sub044] (Eterna round: R96, puzzle: Same State NG 1)	32.2 nM	39.6 nM	48.5 nM			
AAACGCAGCAUAUCGCUGCGACAUGAGGAUCACCCAUGUACACAGGAUAUCGCAGCAUACCGCCGCGAGAAGGGUGAUCAAGAC [Anonlete] (Eterna round: R96, puzzle: Same State NG 3)	99.3 nM	16.3 nM	33.9 nM			
UGAAUAUCUACAGGAUAUGAGUUGUAUAGUGGAUCAGAAGGGUGGGUGUUUUGCACGGUGUGUUACAUGAGGAUCACCCAUGUU [SameState NG1 #25] (Eterna round: R96, puzzle: Same State NG 1)	302 nM	139 nM	324 nM			
GACAAUCUAUCUGAGGAUAUCAUGAAAAAAACAUGAGGAUCACCCAUGUGCAGGAAAACUGCAUAUGAGAAGGCAGAUAGAUUGA [salish99_SS2_r3_009] (Eterna round: R96, puzzle: Same State 2)		453 nM				
AGUCCAGCCUGAGCUGGACAAAAGCAUGUACAUGAGGAUCACCCAUGUCAUGUACAAGCUUUUUGCUCGUAAUAAUA [Mat - hsa-mir-208a - Mod of JL - D31] (puzzle: Sensor for hsa-mir-208a)				301 nM	12.4 nM	477 nM
GGUGCGAAAUAAGCCUACAUGAGGAUCACCCAUGUAUGUAGGCAGGAUAUCGUAUGCAAAGCAUACGAGAAGGGCUGUCGCACC [Mat - Same State NG 3 - JL Mod - D48] (Eterna round: R96, puzzle: Same State NG 3)	33.2 nM	61 nM	94.6 nM			
GCUCGAUGAGCGGUUUACAUGAGGAUCACCCAUGUACAUGGGCAGGAUAUUUACGUGCUUUGUGUAGAGAAGGGCCCAUCGAGC [SameState NG3 #74] (Eterna round: R96, puzzle: Same State NG 3)	92.4 nM	280 nM	244 nM			
AGAGGAGGCGCAGGAUAUACGACGGAGGACGUGGUAGAAGGGUGCAUGCGAUGACAUGAGGAUCACCCAUGUACCGCGCGACGA [AK SSNG1-V2-16] (Eterna round: R96, puzzle: Same State NG 1)	337 nM	14.2 nM	78.9 nM			
GCAGUACUAGCAGAGGAUAUGUCGAUAACGACAUGAGGAUCACCCAUGUGUACGGAAGUACUCAGACAGAAGGCUGAGUACUGCU [Same State 2 - Hyphema v.2] (puzzle: Same State 2)				15.2 nM	30.2 nM	41.8 nM
CCGAUGAUAGGACAGGAUAUGACUGUCGUCACAUGAGGAUCACCCAUGUCCCGGCAAUGCCACCGUUAGAAGGGUCCCAUCUCGG [Uslainarin] (puzzle: Same State 2)					15.6 nM	
GUUACAUGAGGAUCACCCAUGUAUGUGUGGGAGUAAGUGUCUUAGGAUAUCUAGUAUUUAGUUUAAGAGAAGGAAGAUUGUUGU [JMF's solution 61] (Eterna round: R96, puzzle: Same State NG 3)	127 nM	90 nM	88.2 nM			
